Legend:
[1] = tested on: ORN differentiated from spheroid cultured progenitor cells; experiment: Calcium imaging assay of ORNs under odorant stimulation; assay type: cell-based, rat; settings: for total calcium concentration stimulated by odor: odorant mixture
Protocol: To facilitate comparison with in vivo ORNs, the physiological properties of ORNs were validated using calcium imaging assays. The activity of the spheroid-cultured ORN progenitor cells was evaluated by transferring them to the laminin-coated plates, and measuring the change in fluorescence intensity by stimulating ORN activity with a mixture of odorant. In addition, the total-calcium concentration and response rate stimulated by odor were analyzed based on the results of calcium imaging.
Specifically, before performing the calcium imaging assay, the coverslip substrate was combined with a magnetic chamber (Live Cell instrument, Seoul, Korea), and the medium was replaced with KREBS Ringer's buffer containing 115 mM NaCl, 5.9 mM KCl, 2.5 mM CaCl2·2H2O, 1.2 mM MgCl2, 1.2 mM NaH2PO4, 10 mM HEPES sodium salt, and 10 mM D-glucose, and it was washed with PBS. Then, the cells were stained with fluo3-AM (life technologies, Waltham, USA). Fluorescence images of calcium markers were monitored using a confocal microscope. To stimulate the ORN, three odorants of 100 µM isovaleric acid (IVA), 2-isobutyl-3-methoxypyrazine (IBMP), and citralva, which are reported to activate the major signaling pathways of the ORN, and 100 µM of their mixture were applied to the magnetic chamber using a tubing connected to a syringe. The intracellular calcium concentration was calculated from the background corrected fluorescence ratio at 506/526 nm using a two-point calibration scheme and the equation [Ca]i=Kd(F0/Fs)(R−Rmin)/(Rmax−R).
Response rates were calculated as a ratio of the number of activated cell populations to the total number of cell populations in the confocal microscopy software.
Next, to determine the physiological properties of ORNs under single […] stimulation, the changes in intracellular calcium levels of ORNs and the changes in fluorescence intensity in cells a, b and c according to […] stimulation were monitored using 100 μM IBMP, 100 μM IVA, and 100 μM citralva.

rat ORN progenitor cells = experiment: Spheroid culture of ORN progenitor cells on REP-coated or laminin-coated plates (spheroid formation, diameter); assay type: cell-based
Protocol: For a comparison between the culture in a vessel coated with a recombinant protein (REP, TGPG[VGRGD(VGPVPG)6]20WPC) and culture in a vessel coated with laminin in whether neural stem cells are cultured into spheroids, the rat ORN progenitor cells primary cultured in Example 1-1 above were plated on REP-coated or laminin-coated cell culture plates.
Specifically, before plating the isolated ORN progenitor cells, 96-well plates (Thermo Scientific, Waltham, USA) were coated with 100 μl of 3 μM REP diluted with PBS, and they were cultured in the humidified 37° C. culture incubator containing 5% CO2 for 1 hour. The REP was prepared by the previously described method (Jeon W B, Park B H, Wei J, Park R W (2011) J Biomed Mater Res A 97 (2): 152-7). After culturing for 1 hour in the humidified incubator, the REP solution was aspirated, and 1×10^6 cells/ml of the isolated ORN progenitor cell suspension was placed and stored in the humidified incubator. MEM medium (Welgene, Gyeongsan, Republic of Korea) containing fresh 0.5% FBS (GE Healthcare lifesciences, Brussel, Belgium), 0.5% penicillin streptomycin (Thermo Fisher, Waltham, USA), kanamycin (SIGMA), and gentamicin (SIGMA) was replaced every 24 hours.
Next, in order to check the optimal conditions for spheroid formation, the diameter and shape of the spheroids were observed according to the seeding populations and the concentration of REP by measuring the diameter of the formed spheroids.

[2] = tested on: spheroid ORN progenitor cells; experiment: qPCR of ORN developmental markers after differentiation of spheroid ORN progenitor cells on laminin-coated plate; assay type: cell-based, rat
Protocol: Spheroid ORN progenitor cells were differentiated and their developmental characteristics were monitored using qPCR and ICC.
Next, in order to analyze the differentiation of spheroid ORN progenitor cells in-depth, the transcriptional levels of ORN developmental markers such as ac3, omp, map2 and ncam, were analyzed by qPCR. Adenyl cyclase III (AC3), an important protein in the ORN, plays an important role in the olfactory signaling cascade. Olfactory marker protein (OMP) is also a protein found in fully matured ORNs. Microtubule associated protein 2 (MAP2) and NSE are expressed in differentiated neurons. Therefore, these markers were used as neuronal maturation markers. Neural cell adhesion molecule (NCAM) was used as a neural cell marker.

[3] = tested on: ORN differentiated from cryopreserved spheroid progenitor cells; experiment: Cryopreservation, thawing and differentiation of spheroid ORN progenitor cells, calcium imaging; assay type: cell-based, rat; settings: 5 day spheroids cryopreserved 35 days, thawed on laminin
Text: Since the neural stem cells cultured into spheroids need to be stably preserved for a long period of time for efficient use, in order to determine whether or not the cell storage period is extended through cryopreservation, spheroid-cultured ORN progenitor cells were cryopreserved for 35 days and thawed to test their physiological properties.

[4] = tested on: spheroid ORN progenitor cells; experiment: Calcein assay of cell viability of spheroid ORN progenitor cells; assay type: cell-based, rat; settings: plate coated with 3 μM REP
Protocol: Since it is essential for neural stem cells to maintain cell viability while cultured into spheroids, a calcein assay was performed to evaluate the viability of ORN progenitor cells cultured into spheroids according to the cultivation time.
Specifically, calcein assay reagent (calcein red-orange, AM; Invitrogen, Carlsbad, USA) is used to evaluate cell viability. Spheroid ORN progenitor cells were washed three times with Dulbecco's phosphate-buffered saline (DPBS; Gibco® by Life Technologies™, Waltham, USA), treated with 3 μM calcein-AM solution, and cultivated at 37° C. for 30 minutes. Cell viability in each well was quantified by measuring optical density at 517 nm with a fluorescence reader (Gemini EM; Molecular Devices, San Jose, USA). The total OD517mm value was normalized to the value measured in spheroid ORN progenitor cells on the first day, and the decrease in fluorescence intensity indicates decrease in viability according to environmental conditions and cell loss according to changes of culture media.

[5] = Surface properties of coated coverslips by AFM and SEM; assay type: physicochemical
Protocol: In order to determine effects of the REP on spheroid formation, surface properties of REP-coated coverslips were observed using atomic force microscopy (AFM) and scanning electronic microscopy (SEM).
Specifically, for AFM and SEM image observation, glass coverslips were coated with 3 μM REP and 25 μg/ml laminin. To coat the coverslip with REP, 3 μM REP solution was poured onto the coverslip and incubated at 37° C. for 1 hour. Thereafter, the coverslip was washed three times with warmed autoclaved distilled water at 37° C. and dried in a hood. To prepare a laminin-coated coverslip, 25 μg/ml laminin was diluted with autoclaved distilled water and poured over the coverslip and the coverslip was stored at 37° C. overnight. Thereafter, the coverslip was washed three times with pressurized distilled water and dried with a critical point dryer (EM CPD 300; Leica, Wetzlar, Germany). AFM (XE-150; Park Systems, Suwon, Republic of Korea) was performed in non-contact mode with a scanning speed of 0.5 Hz. Before SEM observation, the coverslip was coated with osmium (Osmium plasma coater, Vacuum Devices Inc., Mito, Japan), and SEM was performed at a chamber pressure of […].

[6] = tested on: spheroid ORN progenitor cells; experiment: qRT-PCR of stem cell markers in spheroid ORN progenitor cells; assay type: cell-based, rat; settings: REP-coated plates
Protocol: In order to evaluate whether the spheroid-cultured ORN progenitor cells maintain a stemness, mRNA levels of stem cell markers were analyzed by quantitative real-time polymerase chain reaction (qRT-PCR). SOX2, Ki67, and nestin were used as specific marker genes for neural stem cells.
Specifically, total RNA was obtained from spheroid ORN progenitors using Trizol (Trizol® Reagent; Life technologies, Waltham, USA), and cDNA was synthesized by reverse transcription. qRT-PCR was performed under conditions of 40-45 repetitions at 95° C. for 30 sec, at 60° C. for 30 sec, and at 72° C. for 30 sec using a SYBR Green PCR Master Mix Kit (QuantiTect® SYBR® Green PCR Kit; QIAGEN, Hilden, Germany) on a Rotor-Gene Q (QIAGEN, Hilden, Germany). Primers of the sequences shown in Table 1 were purchased from GenoTeck (Daejeon, Korea) and Bionics (Daejeon, Korea). The housekeeping gene cyclophilin A was used as an internal standard.

[7] = day 3 spheroids, differentiated 72 hours on laminin-coated plate

Which results are given for `CC(C)CC(=O)O` [IVA, isovaleric acid, reference compound]?
activation of ORN cell a (intracellular calcium fluorescence) ([1]; single odorant, 100 μM): activated; activation of ORN cell b (intracellular calcium fluorescence) ([1]; single odorant, 100 μM): activated; activation of ORN cell c (intracellular calcium fluorescence) ([1]; single odorant, 100 μM): activated

For laminin [reference compound], which “culture outcome on coated plate” value (rat ORN progenitor cells; plate coated with laminin) is on record?
Its value is “neurites outgrowth occurred and the cells were differentiated without spheroid culture”.

What about the “expression level of nsetin” value ([2]; laminin group, days 3, 5 and 10) of the same molecule?
The value was “about 0.1 fold”.

Which “activation of ORN cell a (intracellular calcium fluorescence)” value ([1]; single odorant, 100 μM) does the source give for `CC(C)=CCCC(C)=CC#N` [citralva, reference compound] here?
Its value is “activated”.

What about the “activation of ORN cell c (intracellular calcium fluorescence)” value ([1]; single odorant, 100 μM) of the same molecule?
The value was “activated”.

With `COc1nccnc1CC(C)C` [IBMP, 2-isobutyl-3-methoxypyrazine, reference compound] as the molecule, how does the “activation of ORN cell a (intracellular calcium fluorescence)” value ([1]; single odorant, 100 μM) read?
The value was “activated”.

B1: TGPG[VGRGD(VGVPG)6]20WPC (protein)
chain: TGPGVGRGDVGVPGVGVPGVGVPGVGVPGVGVPGVGVPGVGRGDVGVPGVGVPGVGVPGVGVPGVGVPGVGVPGVGRGDVGVPGVGVPGVGVPGVGVPGVGVPGVGVPGVGRGDVGVPGVGVPGVGVPGVGVPGVGVPGVGVPGVGRGDVGVPGVGVPGVGVPGVGVPGVGVPGVGVPGVGRGDVGVPGVGVPGVGVPGVGVPGVGVPGVGVPGVGRGDVGVPGVGVPGVGVPGVGVPGVGVPGVGVPGVGRGDVGVPGVGVPGVGVPGVGVPGVGVPGVGVPGVGRGDVGVPGVGVPGVGVPGVGVPGVGVPGVGVPGVGRGDVGVPGVGVPGVGVPGVGVPGVGVPGVGVPGVGRGDVGVPGVGVPGVGVPGVGVPGVGVPGVGVPGVGRGDVGVPGVGVPGVGVPGVGVPGVGVPGVGVPGVGRGDVGVPGVGVPGVGVPGVGVPGVGVPGVGVPGVGRGDVGVPGVGVPGVGVPGVGVPGVGVPGVGVPGVGRGDVGVPGVGVPGVGVPGVGVPGVGVPGVGVPGVGRGDVGVPGVGVPGVGVPGVGVPGVGVPGVGVPGVGRGDVGVPGVGVPGVGVPGVGVPGVGVPGVGVPGVGRGDVGVPGVGVPGVGVPGVGVPGVGVPGVGVPGVGRGDVGVPGVGVPGVGVPGVGVPGVGVPGVGVPGAAAVGRGDAVGVPGVGVPGVGVPGVGVPGVGVPGVGVPGAAWPC
modifications: TGPG[VGRGD(VGVPG)6]20WPC
notes: recombinant elastin-derived protein with VGVPG pentapeptide and RGD integrin receptor ligand, used as culture vessel coating
Which spheroid diameter (rat ORN progenitor cells; 1 μM REP coating) does the source give for B1 here?
The spheroid diameter was “approximately 20 μm”.

What about the spheroid morphology (rat ORN progenitor cells; 1 μM REP coating) of the same molecule?
Its spheroid morphology is “unstable spheroid morphology and cell aggregation”.

And the “mean diameter of spheroids” value (rat ORN progenitor cells; 1 μM REP coating, 24 hours after cell inoculation)?
The value was 24.2±0.7 μm.

And the “mean diameter of spheroids” value (rat ORN progenitor cells; 3 μM REP coating, 3rd day)?
The value was 77.5±3.3 μm.

And the “mean diameter of spheroids” value (rat ORN progenitor cells; 3 μM REP coating, 24 hours after cell inoculation)?
Its value is 62.6±2.2 μm.

And the “mean diameter of spheroids” value (rat ORN progenitor cells; 5 μM REP coating, 5th day)?
Its value is 69.4±3.6 μm.

What about the “mean diameter of spheroids” value (rat ORN progenitor cells; 5 μM REP coating, 24 hours after cell inoculation) of the same molecule?
The value was 56.2±2.8 μm.

And the “time for ORN progenitor cells to aggregate to form spheroids” value (rat ORN progenitor cells; plate coated with REP)?
The value was at most 24 h.

And the “response rate stimulated by odor, compared to day 5” value [3]?
The value was 72.3%.

And the “total-calcium concentration stimulated by odor, compared to day 5” value [3]?
The value was 72.5%.

And the “expression level of ac3” value [2, 7]?
Its value is 6.3±0.7 fold.

And the “expression level of map2” value [2, 7]?
Its value is 8.7±0.5 fold.

And the “expression level of nse” value [2, 7]?
Its value is 9.1±0.8 fold.

What about the “expression level of omp” value [2, 7] of the same molecule?
The value was 6.3±0.7 fold.

What about the “fluorescence intensity (cell viability) normalized to first day” value ([4]; 3rd day) of the same molecule?
Its value is 1.05±0.03 times.

What about the “fluorescence intensity (cell viability) normalized to first day” value ([4]; 10th day) of the same molecule?
The value was 0.087±0.01 times.

And the “total calcium concentration stimulated by odor” value ([1]; ORNs spheroid cultured for 3 days)?
The value was 195.7 ± 24.0 nM.

What about the “total calcium concentration stimulated by odor” value ([1]; ORNs spheroid cultured for 5 days) of the same molecule?
Its value is 205.3 ± 24.9 nM.

And the “total calcium concentration stimulated by odor” value ([1]; ORNs spheroid cultured for 10 days)?
Its value is 205.4 ± 22.3 nM.

What about the “response rate (activated cells / total cells)” value ([1]; cultivation time 3 days) of the same molecule?
The value was 29.9±2.5%.

And the “response rate (activated cells / total cells)” value ([1]; cultivation time 5 days)?
Its value is 27.6±3.0%.

What about the “response rate (activated cells / total cells)” value ([1]; cultivation time 10 days) of the same molecule?
Its value is 28.1±4.2%.

And the “height and roughness relative to laminin-coated surface” value ([5]; 3 μM REP vs 25 μg/ml laminin)?
The value was 23.8 times.

What about the “roughness (AFM)” value ([5]; coverslip coated with 3 μM REP) of the same molecule?
The value was 148.3±15.9 nm.

What about the “normalized relative mRNA level of Ki67” value ([6]; day 3) of the same molecule?
Its value is 8.6±0.8 fold.

And the “normalized relative mRNA level of SOX2” value ([6]; day 3)?
The value was 8.4±0.8 fold.

What about the “normalized relative mRNA level of nestin” value ([6]; day 3) of the same molecule?
Its value is 11.7±1.1 fold.

And the NSE expression ([6]; days 3, 5 and 10)?
Its NSE expression is “approximately 0.1 fold”.
